The target of one test is EIF4G1 (UniProt Q04637). In words: co-IP, anti-FLAG, C-FLAG B3GNT2 cell lysate, mass spectrometry.
A further test concerns the target HSPB1 (UniProt P04792). The description is as above.
For the next test, the target named is MTCH2 (UniProt Q9Y6C9). The test is described as above.
The target of another test is RPL22 (UniProt P35268). Described as above.
For a further test, the target named is RPL35 (UniProt P42766). The test is described as above.
A further test deals with RPL37A (UniProt P61513). The description is as above.
The next test deals with RPS19 (UniProt P39019). The test is described as above.
The target of the next test is RPS8 (UniProt P62241). Described as above.
A further test deals with SRSF1 (UniProt Q07955). Described as above.
The target of a further test is SSRP1 (UniProt Q08945). The description is as above.
The target in another test is TXN (UniProt P10599). The test is described as above.
A further test addresses ARF4 (human) (UniProt P18085). In words: co-IP with control IgG, mass spectrometry; lysate of cells with C-FLAG B3GNT2.
The next test deals with ARHGEF2 (human) (UniProt Q92974). The test is described as above.
Another test concerns the target CCT2 (human) (UniProt P78371). The description is as above.
Another test deals with CTHRC1 (human) (UniProt Q96CG8). Described as above.
For a further test, the target named is EIF4A1 (human) (UniProt P60842). The test is described as above.
Another test has as its target GALNT2 (human) (UniProt Q10471). The test is described as above.
The target in the next test is GANAB (human) (UniProt Q14697). The description is as above.
For the next test, the target named is GAPDH (human) (UniProt P04406). Described as above.
In the next test the target is HADHA (human) (UniProt P40939). Described as above.
In the next test the target is HSPD1 (human) (UniProt P10809). Described as above.
For the next test, the target named is IPO13 (human) (UniProt O94829). The description is as above.
A further test concerns the target MARS (human) (UniProt P56192). The description is as above.
Another test has as its target MSN (human) (UniProt P26038). The description is as above.
The target of a further test is NPM1 (human) (UniProt P06748). The description is as above.
A further test concerns the target PIGR (human) (UniProt P01833). Described as above.
The target of a further test is PSMD4 (human) (UniProt P55036). Described as above.
The target of another test is RPL26 (human) (UniProt P61254). The test is described as above.
A further test has as its target RPL32 (human) (UniProt P62910). The description is as above.
The target in a further test is RPL9 (human) (UniProt P32969). The test is described as above.
The target of another test is RPS27 (human) (UniProt P42677). The description is as above.
The target of another test is RPS4X (human) (UniProt P62701). Described as above.
For the next test, the target named is RRP12 (human) (UniProt Q5JTH9). The test is described as above.
The target in a further test is SDF4 (human) (UniProt Q9BRK5). Described as above.
Another test concerns the target SEL1L (human) (UniProt Q9UBV2). The test is described as above.
The next test addresses SPRR1A (human) (UniProt P35321). The description is as above.
In another test the target is UGGT1 (human) (UniProt Q9NYU2). Described as above.
In another test the target is ZC3HAV1 (human) (UniProt Q7Z2W4). Described as above.

Sequence of SEL1L (human) (Q9UBV2 22-794 limits assumed): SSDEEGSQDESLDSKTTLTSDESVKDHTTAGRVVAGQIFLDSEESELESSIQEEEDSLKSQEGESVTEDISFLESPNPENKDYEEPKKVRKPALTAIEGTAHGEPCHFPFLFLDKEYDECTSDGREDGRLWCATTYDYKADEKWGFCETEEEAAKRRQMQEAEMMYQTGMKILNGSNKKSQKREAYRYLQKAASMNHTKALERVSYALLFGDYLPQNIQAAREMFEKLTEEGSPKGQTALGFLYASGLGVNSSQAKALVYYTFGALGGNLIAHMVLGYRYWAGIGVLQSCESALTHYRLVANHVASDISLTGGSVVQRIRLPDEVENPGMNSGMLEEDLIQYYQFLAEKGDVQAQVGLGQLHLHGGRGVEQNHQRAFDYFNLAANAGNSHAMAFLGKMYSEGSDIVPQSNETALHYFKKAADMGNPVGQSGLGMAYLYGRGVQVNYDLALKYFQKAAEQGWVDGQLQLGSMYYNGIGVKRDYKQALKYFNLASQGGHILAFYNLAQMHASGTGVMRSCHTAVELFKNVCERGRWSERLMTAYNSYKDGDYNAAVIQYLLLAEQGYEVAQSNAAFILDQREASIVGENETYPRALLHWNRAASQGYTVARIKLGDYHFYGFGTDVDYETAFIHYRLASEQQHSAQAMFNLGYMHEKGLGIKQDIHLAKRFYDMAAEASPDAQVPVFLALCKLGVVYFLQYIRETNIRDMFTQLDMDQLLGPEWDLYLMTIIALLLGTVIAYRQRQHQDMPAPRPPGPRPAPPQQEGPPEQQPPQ
Sequence of SRSF1 (Q07955 2-248 limits assumed): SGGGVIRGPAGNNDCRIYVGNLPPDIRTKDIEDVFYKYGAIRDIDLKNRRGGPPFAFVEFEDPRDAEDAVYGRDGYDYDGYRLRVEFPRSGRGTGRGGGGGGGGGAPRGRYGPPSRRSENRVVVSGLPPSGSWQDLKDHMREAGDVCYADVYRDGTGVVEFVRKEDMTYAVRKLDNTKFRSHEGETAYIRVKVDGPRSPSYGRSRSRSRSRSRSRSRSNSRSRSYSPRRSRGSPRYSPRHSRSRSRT
Sequence of HSPB1 (P04792 whole entry): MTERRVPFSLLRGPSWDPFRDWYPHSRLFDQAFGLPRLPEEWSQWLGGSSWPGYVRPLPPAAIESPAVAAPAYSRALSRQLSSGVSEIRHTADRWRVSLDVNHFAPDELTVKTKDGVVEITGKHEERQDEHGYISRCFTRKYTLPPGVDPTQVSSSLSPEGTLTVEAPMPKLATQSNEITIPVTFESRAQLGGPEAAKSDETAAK
Sequence of UGGT1 (human) (Q9NYU2 43-1555 limits assumed): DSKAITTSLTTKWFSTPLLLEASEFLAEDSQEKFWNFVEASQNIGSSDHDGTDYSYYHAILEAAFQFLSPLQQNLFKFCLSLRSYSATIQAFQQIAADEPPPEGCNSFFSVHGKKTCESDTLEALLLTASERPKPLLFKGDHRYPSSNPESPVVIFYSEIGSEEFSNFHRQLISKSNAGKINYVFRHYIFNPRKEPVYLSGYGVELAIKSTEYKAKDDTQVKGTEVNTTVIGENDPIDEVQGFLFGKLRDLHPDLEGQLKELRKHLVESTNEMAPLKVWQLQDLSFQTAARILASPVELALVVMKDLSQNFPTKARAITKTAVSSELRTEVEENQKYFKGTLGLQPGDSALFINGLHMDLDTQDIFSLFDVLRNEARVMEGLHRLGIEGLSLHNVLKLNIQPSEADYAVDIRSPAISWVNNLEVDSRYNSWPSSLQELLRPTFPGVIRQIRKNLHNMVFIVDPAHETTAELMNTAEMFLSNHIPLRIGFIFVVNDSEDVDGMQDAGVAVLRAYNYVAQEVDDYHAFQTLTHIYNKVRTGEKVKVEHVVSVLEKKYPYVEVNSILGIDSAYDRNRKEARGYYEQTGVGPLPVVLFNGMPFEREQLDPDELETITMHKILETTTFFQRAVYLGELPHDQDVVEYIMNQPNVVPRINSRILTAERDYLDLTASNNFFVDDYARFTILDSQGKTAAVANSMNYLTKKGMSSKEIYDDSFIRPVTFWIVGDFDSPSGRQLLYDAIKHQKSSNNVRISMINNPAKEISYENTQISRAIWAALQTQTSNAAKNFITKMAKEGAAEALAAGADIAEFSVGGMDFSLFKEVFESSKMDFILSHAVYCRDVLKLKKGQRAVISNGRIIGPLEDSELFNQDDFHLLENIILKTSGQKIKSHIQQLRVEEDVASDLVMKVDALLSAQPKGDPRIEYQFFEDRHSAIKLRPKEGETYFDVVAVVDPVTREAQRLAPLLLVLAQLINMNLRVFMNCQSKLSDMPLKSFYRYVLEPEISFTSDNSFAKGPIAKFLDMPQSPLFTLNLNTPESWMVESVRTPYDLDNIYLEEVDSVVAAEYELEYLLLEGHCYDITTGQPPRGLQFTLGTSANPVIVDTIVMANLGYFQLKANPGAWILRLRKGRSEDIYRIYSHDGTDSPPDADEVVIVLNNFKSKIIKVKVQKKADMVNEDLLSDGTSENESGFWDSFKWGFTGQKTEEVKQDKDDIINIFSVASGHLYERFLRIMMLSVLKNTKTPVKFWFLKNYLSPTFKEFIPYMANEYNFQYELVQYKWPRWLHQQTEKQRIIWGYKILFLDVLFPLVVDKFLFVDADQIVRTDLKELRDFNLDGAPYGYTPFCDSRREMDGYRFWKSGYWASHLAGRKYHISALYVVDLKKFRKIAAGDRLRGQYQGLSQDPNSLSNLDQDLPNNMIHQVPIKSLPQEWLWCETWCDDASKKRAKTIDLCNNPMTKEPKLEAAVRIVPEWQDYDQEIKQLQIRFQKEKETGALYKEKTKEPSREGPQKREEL
Sequence of PIGR (human) (P01833 19-764 limits assumed): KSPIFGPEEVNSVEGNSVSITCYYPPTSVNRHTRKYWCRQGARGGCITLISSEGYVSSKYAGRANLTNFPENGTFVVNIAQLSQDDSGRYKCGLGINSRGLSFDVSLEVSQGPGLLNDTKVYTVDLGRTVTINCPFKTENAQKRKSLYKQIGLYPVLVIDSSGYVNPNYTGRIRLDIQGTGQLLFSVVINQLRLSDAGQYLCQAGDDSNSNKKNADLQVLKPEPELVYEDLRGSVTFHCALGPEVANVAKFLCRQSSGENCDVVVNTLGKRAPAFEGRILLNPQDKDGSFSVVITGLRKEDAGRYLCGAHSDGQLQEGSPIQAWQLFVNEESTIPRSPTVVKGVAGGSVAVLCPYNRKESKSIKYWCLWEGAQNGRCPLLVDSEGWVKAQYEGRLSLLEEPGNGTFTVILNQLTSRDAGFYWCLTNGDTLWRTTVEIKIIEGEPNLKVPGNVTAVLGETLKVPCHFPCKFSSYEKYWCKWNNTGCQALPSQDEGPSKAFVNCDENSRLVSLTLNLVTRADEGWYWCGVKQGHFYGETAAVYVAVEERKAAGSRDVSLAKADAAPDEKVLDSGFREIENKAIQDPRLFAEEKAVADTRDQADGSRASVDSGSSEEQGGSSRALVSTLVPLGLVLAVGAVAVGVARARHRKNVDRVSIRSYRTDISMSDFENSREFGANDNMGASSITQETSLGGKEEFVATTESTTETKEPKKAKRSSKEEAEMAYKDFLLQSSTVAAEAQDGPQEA
Sequence of HADHA (human) (P40939 37-763 limits assumed): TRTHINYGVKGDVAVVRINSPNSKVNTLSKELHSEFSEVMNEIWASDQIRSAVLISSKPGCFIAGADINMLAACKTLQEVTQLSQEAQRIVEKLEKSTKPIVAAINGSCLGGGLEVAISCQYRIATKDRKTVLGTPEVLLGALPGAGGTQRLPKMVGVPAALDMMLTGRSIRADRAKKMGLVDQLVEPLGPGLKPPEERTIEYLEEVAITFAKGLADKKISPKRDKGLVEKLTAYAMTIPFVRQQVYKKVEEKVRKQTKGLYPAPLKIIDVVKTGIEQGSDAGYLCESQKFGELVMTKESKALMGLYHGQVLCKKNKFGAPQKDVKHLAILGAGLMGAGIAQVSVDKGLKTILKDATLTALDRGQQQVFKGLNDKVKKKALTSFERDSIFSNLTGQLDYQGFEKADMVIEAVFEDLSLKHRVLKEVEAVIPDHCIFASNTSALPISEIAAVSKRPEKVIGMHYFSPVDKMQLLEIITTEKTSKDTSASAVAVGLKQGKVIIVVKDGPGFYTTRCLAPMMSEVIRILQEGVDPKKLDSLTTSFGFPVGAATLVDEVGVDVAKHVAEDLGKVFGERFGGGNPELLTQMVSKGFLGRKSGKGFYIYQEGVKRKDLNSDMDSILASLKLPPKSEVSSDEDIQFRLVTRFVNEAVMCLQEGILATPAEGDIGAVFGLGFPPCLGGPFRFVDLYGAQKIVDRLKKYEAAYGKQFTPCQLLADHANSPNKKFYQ
Sequence of CCT2 (human) (P78371 48-535 limits assumed): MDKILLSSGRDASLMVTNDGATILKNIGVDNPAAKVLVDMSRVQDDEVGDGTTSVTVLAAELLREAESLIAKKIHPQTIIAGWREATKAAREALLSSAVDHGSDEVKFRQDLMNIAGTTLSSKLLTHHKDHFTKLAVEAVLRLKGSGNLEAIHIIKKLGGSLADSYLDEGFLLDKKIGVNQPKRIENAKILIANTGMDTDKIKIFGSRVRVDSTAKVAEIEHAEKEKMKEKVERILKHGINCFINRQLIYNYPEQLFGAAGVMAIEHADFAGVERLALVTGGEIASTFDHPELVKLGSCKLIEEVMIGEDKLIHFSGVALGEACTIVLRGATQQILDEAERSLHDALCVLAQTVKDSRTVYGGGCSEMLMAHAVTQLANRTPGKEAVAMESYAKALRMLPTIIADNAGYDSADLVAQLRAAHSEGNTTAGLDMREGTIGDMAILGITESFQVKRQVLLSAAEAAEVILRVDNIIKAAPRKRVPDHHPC
Sequence of GAPDH (human) (P04406 2-335 limits assumed): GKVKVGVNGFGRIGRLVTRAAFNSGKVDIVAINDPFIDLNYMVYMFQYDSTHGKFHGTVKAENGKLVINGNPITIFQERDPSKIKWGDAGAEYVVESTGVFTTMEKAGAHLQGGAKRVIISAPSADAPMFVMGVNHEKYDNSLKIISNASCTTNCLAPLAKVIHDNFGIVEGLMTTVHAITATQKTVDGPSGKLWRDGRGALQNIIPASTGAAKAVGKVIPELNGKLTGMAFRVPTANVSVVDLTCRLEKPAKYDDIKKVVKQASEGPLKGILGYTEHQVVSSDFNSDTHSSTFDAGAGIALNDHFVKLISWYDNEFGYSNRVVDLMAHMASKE

“C-terminal FLAG tagged B3GNT2 (from UniProt Q9NY97 1-397) (enzyme)”: the co-IP mass spectrometry count was 6 with EIF4G1; 4 with HSPB1; 2 in the test with MTCH2; 5 in the test with RPL22; 5 in the test with RPL35; 7 with RPL37A. For the same substance, the co-IP mass spectrometry count in the test with RPS19 came out at 10; with RPS8 it was 17; with SRSF1 it was 9; with SSRP1 it was 6; with TXN, 3.

Regarding “IgG control (Millipore Sigma 12-371) (antibody)”, the co-IP mass spectrometry count in the test with ARF4 (human), in the test with ARHGEF2 (human), with CCT2 (human), with CTHRC1 (human), with EIF4A1 (human) and with GALNT2 (human) was 0 in each case. Moreover, the co-IP mass spectrometry count with GANAB (human) was found to be 0; with GAPDH (human), 6; with HADHA (human), 0; in the test with HSPD1 (human), 2; with IPO13 (human) it was 0; with MARS (human) it was 0. Besides, the co-IP mass spectrometry count with MSN (human) turned out to be 0; with NPM1 (human), 0; with PIGR (human), 0; in the test with PSMD4 (human), 0; with RPL26 (human), 4; with RPL32 (human), 0. The co-IP mass spectrometry count worked out at 0 with RPL9 (human); 0 in the test with RPS27 (human); 7 with RPS4X (human); 0 in the test with RRP12 (human); 0 in the test with SDF4 (human); 0 with SEL1L (human). For the same substance, the co-IP mass spectrometry count with SPRR1A (human), in the test with UGGT1 (human) and with ZC3HAV1 (human) was 0 throughout.

The values above are taken from patent publication US20240261333A1, “NOVEL TARGETS FOR ENHANCING ANTI-TUMOR IMMUNITY” (THE BROAD INSTITUTE, INC., priority 2021, published 2024).
